{"source": "paper PMC6294903", "about": "(Proceedings of the National Academy of Sciences of the …, 2018)", "key": {"[1]": {"target": "DnaJ-6His (Salmonella enterica serovar Typhimurium) (UniProt P0A1G7)", "test": "MST"}, "DnaJ C268A": {"target": "T1, DnaJ C268A (Salmonella enterica serovar Typhimurium, UniProt P0A1G7 1-379, C268A)", "T1 sequence (looked up)": "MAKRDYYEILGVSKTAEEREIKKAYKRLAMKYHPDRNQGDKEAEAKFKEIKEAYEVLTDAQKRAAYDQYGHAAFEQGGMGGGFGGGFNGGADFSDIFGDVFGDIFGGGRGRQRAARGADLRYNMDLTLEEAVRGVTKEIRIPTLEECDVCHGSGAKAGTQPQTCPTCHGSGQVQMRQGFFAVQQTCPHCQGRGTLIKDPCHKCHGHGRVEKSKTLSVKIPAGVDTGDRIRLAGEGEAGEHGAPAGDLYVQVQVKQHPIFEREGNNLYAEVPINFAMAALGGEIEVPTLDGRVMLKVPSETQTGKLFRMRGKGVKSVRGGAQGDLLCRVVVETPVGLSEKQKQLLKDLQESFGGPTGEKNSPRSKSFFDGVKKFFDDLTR", "test": "pull-down"}}}
{"molecule": "oxidized DksA (recombinant, GST removed) (from UniProt P0A1G5 1-151) (natural protein)", "values": [{"measurement": "Kd", "setting": "[1]", "value": 65, "unit": "nM"}]}
{"molecule": "GST-DksA (wild type, pull-down done in the absence of DTT) (natural protein, Salmonella enterica serovar Typhimurium, UniProt P0A1G5 1-151, looked up) MQEGQNRKTSSLSILAIAGVEPYQEKPGEEYMNEAQLSHFKRILEAWRNQLRDEVDRTVTHMQDEAANFPDPVDRAAQEEEFSLELRNRDRERKLIKKIEKTLKKVEDEDFGYCESCGVEIGIRRLEARPTADLCIDCKTLAEIREKQMAG", "values": [{"measurement": "binding result", "setting": "DnaJ C268A", "value": "binds"}]}
